Where a chain is given by its changes, count along the chain named. Blank lines part the entries; values can stand above or below the binder they belong to.
How the values were obtained:
[1] = target: T1, human 4Ig-B7H3 over-expressed on NK92mi cells (human, UniProt Q5ZPR3 29-534); test: FACS on live NK92mi/B7H3 cells, goat anti-human IgG detection, Test2
T1 construct: Full-length protein on live engineered NK92mi cells; also called NK92mi/B7H3; native B7H3
T1 sequence: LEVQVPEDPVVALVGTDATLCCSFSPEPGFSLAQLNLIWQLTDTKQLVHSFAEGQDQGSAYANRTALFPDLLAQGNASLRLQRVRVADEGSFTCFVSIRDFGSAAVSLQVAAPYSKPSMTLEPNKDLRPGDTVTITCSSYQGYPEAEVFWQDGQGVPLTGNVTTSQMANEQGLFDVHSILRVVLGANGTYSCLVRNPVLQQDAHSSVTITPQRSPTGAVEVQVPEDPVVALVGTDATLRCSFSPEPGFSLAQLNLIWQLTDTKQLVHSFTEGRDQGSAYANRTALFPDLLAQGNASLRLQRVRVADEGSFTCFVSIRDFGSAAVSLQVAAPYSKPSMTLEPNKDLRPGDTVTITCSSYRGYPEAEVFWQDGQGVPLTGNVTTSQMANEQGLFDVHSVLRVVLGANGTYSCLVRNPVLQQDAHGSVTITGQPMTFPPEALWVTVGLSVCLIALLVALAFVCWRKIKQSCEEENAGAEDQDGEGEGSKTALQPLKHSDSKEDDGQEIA
Protocol: (§1) To evaluate the binding activity of humanized antibodies to bind native B7H3 on live cells, NK92mi cells were engineered to over-express human 4Ig-B7H3. Live NK92mi/B7H3 cells were seeded in 96-well plates and were incubated with a series of dilutions of chimeric or humanized antibodies. Goat anti-human IgG was used as second antibody to detect antibody binding to the cell surface. EC₅₀ values for dose-dependent binding to human native B7H3 were determined by fitting the dose-response data to the four-parameter logistic model with GraphPad Prism.

[2] = target: T2, ECD of human 4Ig-B7H3 (Sinobiological, Cat: 11188-H08H) (human); test: SPR, antibody captured on anti-human Fc surface, Test 2
T2 construct: Bought protein; also called human 4Ig-B7H3 ECD
Source text: (§2) For affinity determination, antibodies were captured by anti-human Fc surface, and used in an affinity assay based on surface plasmon resonance (SPR) technology.

[3] = target: T2, ECD of human 4Ig-B7H3 (Sinobiological, …); test: SPR, antibody captured on anti-human Fc surface, Test 1
Source text: as §2

[4] = target: T1, human 4Ig-B7H3 over-expressed on NK92mi …; test: FACS on live NK92mi/B7H3 cells, goat anti-human IgG detection, Test1
Protocol: as §1

EC50 [1]: 0.94 nM | Kd [2]: 0.615 nM | koff [2]: 0.000227 s⁻¹ | kon [2]: 369000 M⁻¹ s⁻¹ | Kd [3]: 0.33 nM | koff [3]: 1.04e-05 s⁻¹ | kon [3]: 31500 M⁻¹ s⁻¹ | EC50 [4]: 0.94 nM
B1: BGA-4348 (antibody, human IgG1, V domains shown)
VH: QIQLVQSGAEVKKPGSSVKVSCKASGYTFTNYDINWVRQAPGQGLEWMGWIYPGDGSAYYNEKFKGRATITADKSTSTAYMELSSLRSEDTAVYYCARWGYGGVPFAYWGQGTLVTVSS
VL: DIVMTQSPDSLAVSLGERATINCKSSQSLLNDINQKNYLAWYQQKPGQSPKLLVYFASTGVSGVPDRFSGSGSGTDFTLTISSLQAEDVAVYYCQQYYSFPWTFGGGTKVEIK
notes: also called humanized antibody BGA-4348; 1st version of humanized antibody; not shown: Human kappa light chain constant region

EC50 [1]: 1.15 nM | Kd [2]: 0.916 nM | koff [2]: 0.000269 s⁻¹ | kon [2]: 294000 M⁻¹ s⁻¹
B2: BGA-5063 (antibody, human IgG1, V domains shown)
VH: B1 VH with I2V, G56A
VL: B1 VL
notes: Derived from BGA-4348 by framework and CDR mutations; also called humanized antibody BGA-5063; not shown: Human kappa light chain constant region

Kd [3]: 0.394 nM | koff [3]: 0.000284 s⁻¹ | kon [3]: 720000 M⁻¹ s⁻¹ | EC50 [4]: 1.1 nM
B3: Chimeric BGA-3295 (antibody, V domains shown)
VH: QIQVVQSGPELVKPGSLVKISCKASGYTFTNYDINWVKQRPGQGLEWIGWIYPGDGSAYYNEKFKGKATLTADKSSSTAYMQLSSLTSENSAVYFCARWGYGGVPFAYWGQGTLVTVSA
VL: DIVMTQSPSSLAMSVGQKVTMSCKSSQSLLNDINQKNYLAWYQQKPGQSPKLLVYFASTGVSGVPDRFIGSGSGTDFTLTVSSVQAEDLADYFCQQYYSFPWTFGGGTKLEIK
notes: Murine variable domains of BGA-3295, tested as the chimeric antibody; It was captured on an anti-human Fc surface and detected with anti-human IgG; also called Antibody BGA-3295

Source: US20250312473A1 (BEONE MEDICINES I, published 2025)
